This is an account of results in article PMC11470942 (Nature Communications, 2024).

The experiment deals with HPIV3 fusion protein (F), parental (Human parainfluenza virus 3, strain …, UniProt P06828). Nature of the experiment: immunostaining of cells or tissue.
Sequence of HPIV3 fusion protein (F), parental (P06828 19-539): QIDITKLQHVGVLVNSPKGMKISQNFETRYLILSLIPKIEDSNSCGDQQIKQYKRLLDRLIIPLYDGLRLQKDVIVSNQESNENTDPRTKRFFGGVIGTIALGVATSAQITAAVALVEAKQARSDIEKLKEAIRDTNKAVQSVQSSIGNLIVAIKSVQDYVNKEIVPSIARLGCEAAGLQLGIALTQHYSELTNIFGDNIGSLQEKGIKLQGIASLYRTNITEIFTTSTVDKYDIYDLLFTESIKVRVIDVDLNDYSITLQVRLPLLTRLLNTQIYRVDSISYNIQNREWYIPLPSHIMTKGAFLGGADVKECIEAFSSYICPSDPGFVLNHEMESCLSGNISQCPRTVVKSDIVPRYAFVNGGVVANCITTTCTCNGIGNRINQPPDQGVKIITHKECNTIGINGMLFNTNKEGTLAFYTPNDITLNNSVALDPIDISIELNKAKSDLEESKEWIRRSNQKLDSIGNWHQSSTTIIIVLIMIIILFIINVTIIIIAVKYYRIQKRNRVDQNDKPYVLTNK

B1: PIA174 antibody fragment (Fab) (Fab, V domains shown)
VH: VQLQESGPGLVKPSETLSLTCTVSGGSVSSYYWSWIRQPPGKGLEWIGNIYYSGTTKYNPSLKSRVTISVDVSKNQFSLNLISVTAADTAVYFCARQVKSGWFVQPFDYWGQGALVTVSS
VL: QMTQSPPSLSAYVGDRVTITCRASQAIANYLAWFQQKPGKAPKSLIYAASTLQSGVPSRFSGSGSGTDFTLTISSLQPEDFATYYCHQYNTYPITFGQGTRLEIK
Turning to B1, the binding result is reported as “binds”.
